Non-standard residues stand in square brackets, D forms with d. Primed or numbered codes have the meaning given here. azaGly′ = aza-glycine residue at the C-terminus, with NH2; Bpa = N[C@@H](Cc1ccc(C(=O)c2ccccc2)cc1)C(=O)O; d2Nal = N[C@H](Cc1ccc2ccccc2c1)C(=O)O; DO3A10CM = not defined here; Bpa4 = non-natural residue; Ampa4 = not defined here; Ampg4 = not defined here; Gufe4 = not defined here; azaGly = NNC(=O)O
B1: BRU-3059 (peptide)
peptide: DO3A10CM-[d2Nal][Ampa4]WSH[dR]W[Bpa]P[azaGly′]-NH2
modifications: reading uncertain; also: printed as DO3A10CM-Dnal2-Ampa4-Trp-Ser-His-Darg-Trp-Bpa4-Pro-azaGly-NH2
B2: BRU-2984 (peptide)
peptide: XRWSHXWXP
modifications: N-terminal DO3A10CM; Dnal2 at 1; Darg at 6; Bpa4 at 8; C-terminal Gua (guanidine) at 10
B3: BRU-2985 (peptide)
peptide: XRWSHXWXP
modifications: N-terminal DO3A10CM; Dnal2 at 1; Darg at 6; Bpa4 at 8; C-terminal A1gua5o3pt at 10
B4: BRU-3060 (peptide)
peptide: DO3A10CM-[d2Nal][Ampg4]WSH[dR]W[Bpa]P[azaGly′]-NH2
modifications: reading uncertain; also: printed as DO3A10CM-Dnal2-Ampg4-Trp-Ser-His-Darg-Trp-Bpa4-Pro-azaGly-NH2
B5: BRU-2964 (peptide)
peptide: DO3A10CM-[d2Nal]RWMH[dR]W[Bpa]P[azaGly]-NH2
modifications: reading uncertain; also: printed as DO3A10CM-Dnal2-Arg-Trp-Met-His-Darg-Trp-Bpa4-Pro-azaGly-NH2
B6: BRU-2962 (peptide)
peptide: GXRWSHXWXPX
modifications: N-terminal DO3A10CM; Gly linker before 1; Dnal2 at 1; Darg at 6; Bpa4 at 8; azaGly-NH2 at 10
B7: BRU-3058 (peptide)
peptide: DO3A10CM-[d2Nal][Gufe4]WSH[dR]W[Bpa]P[azaGly′]-NH2
modifications: reading uncertain; also: printed as DO3A10CM-Dnal2-Gufe4-Trp-Ser-His-Darg-Trp-Bpa4-Pro-azaGly-NH2
B8: BRU-3006 (peptide)
peptide: XRWSHXWXP
modifications: N-terminal DO3A10CM; Dnal2 at 1; Darg at 6; Bpa4 at 8; C-terminal Ap (aminophenyl) at 10
B9: BRU-2811 (peptide)
peptide: HWSHXWXPX
modifications: N-terminal DO3A10CM on His (AA1 absent); Darg at AA6; Bpa4 at AA8; azaGly-NH2 at AA10
B10: BRU-2971 (peptide)
peptide: DO3A10CM-[d2Nal]RWSH[dR]W[Bpa]PGQ-NH2
modifications: reading uncertain; also: printed as DO3A10CM-Dnal2-Arg-Trp-Ser-His-Darg-Trp-Bpa4-Pro-Gly-Gln-NH2
B11: BRU-3098 (peptide)
peptide: KXRWSHXWXPX
modifications: Lys(DO3A10CM) before 1 (chelator on the Lys side chain); Dnal2 at 1; Darg at 6; Bpa4 at 8; azaGly-NH2 at 10
B12: BRU-2963 (peptide)
peptide: XXRWSHXWXPX
modifications: N-terminal DO3A10CM; Ambz4 linker before 1; Dnal2 at 1; Darg at 6; Bpa4 at 8; azaGly-NH2 at 10
B13: BRU-3067 (peptide)
peptide: GXRWSHXWXPX
modifications: DO3A10CM-Gly (linker) on N-terminus; AA1 Dtic; AA6 Darg; AA8 Bpa4; AA10 azaGly-NH2

Biological target: LHRH receptor (LHRH binding sites) on EFO-27 human ovarian cancer cells (human)
Test: competition with [125I-Tyr8]BRU-2477, EFO-27 cells

| EC50 | Binder |
| --- | --- |
| 330 nM | XRWSHXWXPX (N-terminal DO3A10CM; Damfe4 at 1; Darg at 6; Bpa4 at 8; azaGly-NH2 at 10) [BRU-2997] |
| 250 nM | XRRSHXWXPX (N-terminal DO3A10CM; Dnal2 at 1; Darg at 6; Bpa4 at 8; azaGly-NH2 at 10) [BRU-3111] |
| 370 nM | XRWSHXWXPX (N-terminal DO3A10CM; Dnal2 at 1; Darg at 6; Nal2 at 8; azaGly-NH2 at 10) [BRU-3027] |
| 450 nM | XRWSHXWXP (DO3A10CM on N-terminus; AA1 Dnal2; AA6 Darg; AA8 Bpa4; AA10 Pheol) [BRU-2983] |
| 470 nM | HRWSHXWXPX (N-terminal DO3A10CM; Darg at 6; Bpa4 at 8; azaGly-NH2 at 10) [BRU-3025] |
| 310 nM | RRWSHXWXPX (N-terminal DO3A10CM; Darg at 6; Bpa4 at 8; azaGly-NH2 at 10) [BRU-3050] |
| 410 nM | B1 |
| 270 nM | XRWNHXWXPX (N-terminal DO3A10CM; Dnal2 at 1; Darg at 6; Bpa4 at 8; azaGly-NH2 at 10) [BRU-2956] |
| 400 nM | B2 |
| 460 nM | B3 |
| 420 nM | XHWSHXWXPX (pGlu at 1; Darg at 6; Bpa4 at 8; azaGly-NH2 at 10) [BRU-2822] |
| 260 nM | XHWSHXWXPX (Ac-Dnal2 at 1; Darg at 6; Bpa4 at 8; azaGly-NH2 at 10) [BRU-2803] |
| 340 nM | B4 |
| 140 nM | XHWSHXWXPX (AA1 Sar; AA6 Darg; AA8 Bpa4; AA10 azaGly-NH2) [BRU-2441] |
| 220 nM | B5 |
| 310 nM | XRWSHRWXPX (N-terminal DO3A10CM; Dnal2 at 1; Bpa4 at 8; azaGly-NH2 at 10 (L-Arg at 6)) [BRU-3031] |
| 470 nM | B6 |
| 240 nM | DO3A10CM-[d2Nal]RWSH[dR]W[Bpa4]PGR-NH2 (reading uncertain) [BRU-2969] |
| 260 nM | B7 |
| 420 nM | B8 |
| 360 nM | B9 |
| 250 nM | XHWSHXWXPX (Ac-Amfe4 at 1; Darg at 6; Bpa4 at 8; azaGly-NH2 at 10) [BRU-2839] |
| 490 nM | B10 |
| 220 nM | XRWSHXWXP (AA1 Sar; AA6 Darg; AA8 Bpa4; AA10 Da15o3pt) [BRU-3007] |
| 410 nM | B11 |
| 280 nM | B12 |
| 430 nM | XRFSHXWXPX (N-terminal DO3A10CM; Dnal2 at 1; Darg at 6; Bpa4 at 8; azaGly-NH2 at 10) [BRU-3106] |

Biological target: LHRH binding sites on EFO-27 human ovarian cancer cells (human)
Test: competition with [125I-Tyr8]BRU-2477 on EFO-27 cells

| EC50 | times more potent than BRU-2439 | Binder |
| --- | --- | --- |
| 1380 nM | – | XHWSHXWXPX (AA1 Ac-Amfe4 with (DO3A10CM) as printed; AA6 Darg; AA8 Bpa4; AA10 azaGly-NH2) [BRU-2881] |
| 510 nM | – | B13 |
| 710 nM | – | XRWSXXWXPX (DO3A10CM on N-terminus; AA1 Dnal2; AA5 Tha; AA6 Darg; AA8 Bpa4; AA10 azaGly-NH2) [BRU-2958] |
| 450 nM | – | XRWSHXWXP (DO3A10CM on N-terminus; AA1 Dnal2; AA6 Darg; AA8 Bpa4; AA10 Pheol) [BRU-2983] |
| 410 nM | – | B1 |
| 400 nM | – | B2 |
| 460 nM | – | B3 |
| 340 nM | – | B4 |
| 140 nM | 2 times | XHWSHXWXPX (AA1 Sar; AA6 Darg; AA8 Bpa4; AA10 azaGly-NH2) [BRU-2441] |
| 240 nM | – | DO3A10CM-[d2Nal]RWSH[dR]W[Bpa4]PGR-NH2 (reading uncertain) [BRU-2969] |
| 260 nM | – | B7 |
| 420 nM | – | B8 |
| 490 nM | – | B10 |
| 220 nM | – | XRWSHXWXP (AA1 Sar; AA6 Darg; AA8 Bpa4; AA10 Da15o3pt) [BRU-3007] |
